Results published in PMC7313415 (Journal of immunology (Baltimore, Md. : 1950), 2020).

B1: Biotin-labeled SUMO-fusion mouse TRIM14 (residues 247-440) (domain or fragment, UniProt Q8BVW3 247-440, looked up)
chain: ALLKTSPSPERALFLKYARTPTLDPDTMHARLRLSPDGLTVRCSLLGRLGPRPAPRFDALRQVLGRDGFAAGRHYWEVDVQEAGVGWWVGAAYPSLRRRGASAAARLGCNRESWCVKRYDLEYWAFHDGQRSRLRPRRDPHRLGVFLDYEAGILAFYDVAGGMSHLHTFHAAFQEPLYPALRLWEGPISIPRLP
modifications: biotin (Avi tag, labelled by BirA)

Tests used:
Test in all cases: SPR
[1] = molecular target: Biotin-labeled SUMO-fusion mouse TRIM14 (residues 247-440) (mouse) (UniProt Q8BVW3)
[2] = molecular target: human cGAS (residues 157-522) (human, UniProt Q8N884 157-522)
human cGAS (residues 157-522), sequence (Q8N884 157-522): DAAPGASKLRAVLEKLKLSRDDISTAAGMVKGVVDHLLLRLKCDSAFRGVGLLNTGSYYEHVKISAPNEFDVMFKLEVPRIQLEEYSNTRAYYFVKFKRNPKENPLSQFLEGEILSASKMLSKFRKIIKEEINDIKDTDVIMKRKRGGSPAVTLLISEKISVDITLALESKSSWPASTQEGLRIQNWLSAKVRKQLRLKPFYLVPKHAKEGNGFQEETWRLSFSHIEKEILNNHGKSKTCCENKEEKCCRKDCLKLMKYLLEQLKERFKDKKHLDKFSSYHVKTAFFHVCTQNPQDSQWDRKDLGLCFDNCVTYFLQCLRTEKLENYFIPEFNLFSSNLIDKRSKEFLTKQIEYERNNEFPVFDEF

full-length human TBK1 = molecular target: T1, full-length human TBK1 (human, UniProt Q9UHD2 1-729)
T1 sequence (looked up): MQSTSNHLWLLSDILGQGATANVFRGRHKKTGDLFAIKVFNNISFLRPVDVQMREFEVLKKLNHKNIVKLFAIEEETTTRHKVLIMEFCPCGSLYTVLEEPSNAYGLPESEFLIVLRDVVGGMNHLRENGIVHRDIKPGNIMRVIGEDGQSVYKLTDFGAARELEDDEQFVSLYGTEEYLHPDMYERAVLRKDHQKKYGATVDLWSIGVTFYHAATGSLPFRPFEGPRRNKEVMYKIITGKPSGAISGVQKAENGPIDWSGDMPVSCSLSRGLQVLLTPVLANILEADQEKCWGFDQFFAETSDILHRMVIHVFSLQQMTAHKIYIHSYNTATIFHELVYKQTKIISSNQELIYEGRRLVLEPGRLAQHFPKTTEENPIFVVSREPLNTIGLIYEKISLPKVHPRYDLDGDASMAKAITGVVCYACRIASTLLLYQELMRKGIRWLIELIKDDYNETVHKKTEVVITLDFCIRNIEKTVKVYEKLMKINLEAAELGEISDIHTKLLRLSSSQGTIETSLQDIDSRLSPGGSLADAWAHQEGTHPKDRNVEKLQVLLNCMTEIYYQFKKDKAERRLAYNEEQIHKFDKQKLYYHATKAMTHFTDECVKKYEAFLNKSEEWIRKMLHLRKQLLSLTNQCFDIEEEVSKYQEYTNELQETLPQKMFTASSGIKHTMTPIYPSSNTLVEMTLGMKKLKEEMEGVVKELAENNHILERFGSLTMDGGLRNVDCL

Row | Molecule | Kd [1] | Kd [2] | Kd (full-length human TBK1)
1 | human TBK1 (residues 1 to 657) (from UniProt Q9UHD2 1-657) (domain or fragment) | 42.6 µM | – | –
2 | mouse TBK1 (residues 1 to 657) (from UniProt Q9WUN2 1-657) (domain or fragment) | 24.3 µM | – | –
3 | B1 | – | 25.8 µM | 11 µM
